Results taken from patent publication US20160145645.

Key:
Assay in all cases: cell_activity
[1] = tested on: hSIRT ZFN pair (artificial); conditions: ZFN activity of the pair; assay conditions not given
[2] = tested on: ZFN pair targeting CHO NW_003618207.1 (artificial); conditions: indels in CHO K1 3 days post transfection, CEL-I or sequencing
[3] = tested on: ZFN pair targeting CHO Neu3 (artificial); conditions: indels in CHO K1 3 days post transfection, CEL-I or sequencing
[4] = tested on: ZFN pair targeting CHO Rosa26 (artificial); conditions: indels in CHO K1 3 days post transfection, CEL-I or sequencing
[5] = tested on: hRSK4 ZFN pair (artificial); conditions: ZFN activity of the pair; assay conditions not given

Question: “ATCTTGCCTGATTTGTAAATACAAAGTTGACTGTGAA (double strand) [hSIRT ZFN recognition sequence]” was tested. Which activity [1] did it give?
Answer: The activity was 16.7%.

Question: Which activity [2] does the source give for CHO NW_003618207.1 bp 12931-12970 here?
Answer: The activity was 16%.

Question: How did the activity [3] turn out when CHO Neu3 locus was run?
Answer: The activity was 41%.

Question: With CHO Rosa26 locus as the substance, how does the activity [4] read?
Answer: Its activity is 31%.

Question: For “GGCTCCTACTCTGTTTGCAAGCGATGCATACATGCAA (double strand) [hRSK4 ZFN recognition sequence]”, which activity [5] is on record?
Answer: The activity was 65.7%.
